From paper PMC8955854, “The Peptide Hormone CNMa Influences Egg Production in the Mosquito Aedes aegypti” (Insects, 2022)
Positions of bridges follow the written chain, without caps; N, C: chain ends. No end group written: not given here.

Key:
[1] = biological target: AeCNMaR-1b (AAEL018316) (Aedes aegypti, UniProt A0A1S4G7J8); experiment: Receptor activation, aequorin luminescence in CHO-K1 aeq cells expressing AeCNMaR-1b; assay type: cell-based; conditions: CHO-K1 aeq cells, transient AeCNMaR-1b; luminescence over 10 s; 10 pM to 50 μM, quadruplicate; normalized to 50 µM AeCNMa; BSA assay media; read-out: EC50
Source text: The CNMa peptide was synthesized and HPLC purified (>90% purity) by Royobiotechs (Shanghai, China) based on the published sequence of the AeCNMa peptide sequence. Both the amidated (YMSLCHFKLCNMa) and the non-amidated (YMSLCHFKLCNM) were produced with a disulfide bridge between cysteines 5 and 10. The complete coding sequence of the two putative Ae. aegypti CNMa receptors (VectorBase genes AAEL024199 and AAEL018316, which we henceforth refer to as AeCNMaR-1a and AeCNMaR-1b, respectively) were commercially synthesized (Integrated DNA Technologies) and subsequently subcloned into a pcDNA3.1+ mammalian expression vector [24]. A Chinese hamster ovary cell line stably expressing the calcium-dependent bioluminescent protein aequorin (CHO-K1 aeq) was grown in Dulbecco’s modified eagles medium: nutrient F12 (DMEM:F12) media containing 10% heat-inactivated fetal bovine serum (FBS; Wisent, St. Bruno, QC, Canada), 200 μg/mL geneticin, and an antimycotic-antibiotic mixture as described previously. […]
Other Ae. aegypti peptides used in this study included “capability” (CAPA)-1 (GPTVGLFAFPRV-NH2), CAPA-2 (pQGLVPFPRV-NH2), AedaeCAPA-pyrokinin (PK) 1 (AGNSGANSGMWFGPRL-NH2), adipokinetic/corazonin-like peptide (ACP; pQVTFSRDWNA-NH2), adipokinetic hormone (AKH) (pQLTFTPSW-NH2), and corazonin (CRZ; pQTFQYSRGWTN-NH2). […] Single concentrations of the various peptides were loaded into individual wells of white 96-well luminescence plates (Greiner Bio-One, Frickenhausen, Germany) with each peptide concentration tested in quadruplicate. CHO-K1 aeq cells expressing either of the two AeCNMa receptors or mCherry were prepared for the functional assay, as described above, and injected into each well of the 96-well luminescence plates by an automated injector unit integrated with the Synergy 2 Multi-Mode Microplate Reader (BioTek, Winooski, VT, USA). The kinetic luminescent response was measured for 10 s immediately following the application of the cells into the wells containing the different peptide treatments or the negative (i.e., BSA media alone) or positive (i.e., 50 μM ATP) controls as described previously. Data was assembled in Microsoft Excel and then analyzed in GraphPad Prism 7.02 (GraphPad Software, San Diego, CA, USA) where the dose–response curves from multiple biological replicates were used to determine the half maximal effective concentrations (EC50).

[2] = biological target: AeCNMaR-1a (AAEL024199) (Aedes aegypti, UniProt A0A6I8U3V2); experiment: Receptor activation, aequorin luminescence in CHO-K1 aeq cells expressing AeCNMaR-1a; assay type: cell-based; conditions: CHO-K1 aeq cells, transient AeCNMaR-1a; luminescence over 10 s; 10 pM to 50 μM, quadruplicate; normalized to 50 µM AeCNMa; BSA assay media; read-out: EC50
Source text: The CNMa peptide was synthesized and HPLC purified (>90% purity) by Royobiotechs (Shanghai, China) based on the published sequence of the AeCNMa peptide sequence. Both the amidated (YMSLCHFKLCNMa) and the non-amidated (YMSLCHFKLCNM) were produced with a disulfide bridge between cysteines 5 and 10. The complete coding sequence of the two putative Ae. aegypti CNMa receptors (VectorBase genes AAEL024199 and AAEL018316, which we henceforth refer to as AeCNMaR-1a and AeCNMaR-1b, respectively) were commercially synthesized (Integrated DNA Technologies) and subsequently subcloned into a pcDNA3.1+ mammalian expression vector [24]. A Chinese hamster ovary cell line stably expressing the calcium-dependent bioluminescent protein aequorin (CHO-K1 aeq) was grown in Dulbecco’s modified eagles medium: nutrient F12 (DMEM:F12) media containing 10% heat-inactivated fetal bovine serum (FBS; Wisent, St. Bruno, QC, Canada), 200 μg/mL geneticin, and an antimycotic-antibiotic mixture as described previously. When cells reached 80–90% confluency, they were transfected using Lipofectamine 3000 transfection reagent following manufacturer recommendations (Life Technologies, Burlington, ON, Canada) to transiently express a mammalian construct in pcDNA3.1+ containing either of the two candidate CNMa receptors or mCherry (pcDNA3.1+ mCherry was a gift from Scott Gradia, Addgene plasmid #30125), the latter of which served as a negative control for the receptor functional assay. After 48 h following transfection, CHO-K1 aeq cells were harvested by dislodging from culture flasks using Dulbecco’s PBS containing EDTA and subsequently resuspended in receptor assay media.
Other Ae. aegypti peptides used in this study included “capability” (CAPA)-1 (GPTVGLFAFPRV-NH2), CAPA-2 (pQGLVPFPRV-NH2), AedaeCAPA-pyrokinin (PK) 1 (AGNSGANSGMWFGPRL-NH2), adipokinetic/corazonin-like peptide (ACP; pQVTFSRDWNA-NH2), adipokinetic hormone (AKH) (pQLTFTPSW-NH2), and corazonin (CRZ; pQTFQYSRGWTN-NH2). Serial dilutions of the peptide stocks were prepared in bovine serum albumin (BSA) assay media (DMEM:F12 media + 0.1% BSA + 1× antibiotic-antimycotic) to test concentrations ranging from 10 pM to 50 μM. Single concentrations of the various peptides were loaded into individual wells of white 96-well luminescence plates (Greiner Bio-One, Frickenhausen, Germany) with each peptide concentration tested in quadruplicate. CHO-K1 aeq cells expressing either of the two AeCNMa receptors or mCherry were prepared for the functional assay, as described above, and injected into each well of the 96-well luminescence plates by an automated injector unit integrated with the Synergy 2 Multi-Mode Microplate Reader (BioTek, Winooski, VT, USA). The kinetic luminescent response was measured for 10 s immediately following the application of the cells into the wells containing the different peptide treatments or the negative (i.e., BSA media alone) or positive (i.e., 50 μM ATP) controls as described previously. Data was assembled in Microsoft Excel and then analyzed in GraphPad Prism 7.02 (GraphPad Software, San Diego, CA, USA) where the dose–response curves from multiple biological replicates were used to determine the half maximal effective concentrations (EC50).

Chain of AeCNMaR-1a (AAEL024199) (A0A6I8U3V2 entry or part of it): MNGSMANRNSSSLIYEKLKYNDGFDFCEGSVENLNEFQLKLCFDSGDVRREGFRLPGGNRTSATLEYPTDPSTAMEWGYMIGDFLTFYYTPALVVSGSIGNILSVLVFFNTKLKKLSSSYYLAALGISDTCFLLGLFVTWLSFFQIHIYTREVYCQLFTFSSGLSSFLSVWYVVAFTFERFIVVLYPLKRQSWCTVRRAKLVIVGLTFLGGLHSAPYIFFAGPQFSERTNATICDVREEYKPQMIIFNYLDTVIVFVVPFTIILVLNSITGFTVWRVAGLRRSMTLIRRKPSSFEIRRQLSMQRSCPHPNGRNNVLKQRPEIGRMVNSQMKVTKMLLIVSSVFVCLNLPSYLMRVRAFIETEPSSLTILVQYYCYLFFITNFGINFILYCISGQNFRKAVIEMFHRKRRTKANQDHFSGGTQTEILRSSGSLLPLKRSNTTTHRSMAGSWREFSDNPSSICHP
Chain of AeCNMaR-1b (AAEL018316) (A0A1S4G7J8 entry or part of it): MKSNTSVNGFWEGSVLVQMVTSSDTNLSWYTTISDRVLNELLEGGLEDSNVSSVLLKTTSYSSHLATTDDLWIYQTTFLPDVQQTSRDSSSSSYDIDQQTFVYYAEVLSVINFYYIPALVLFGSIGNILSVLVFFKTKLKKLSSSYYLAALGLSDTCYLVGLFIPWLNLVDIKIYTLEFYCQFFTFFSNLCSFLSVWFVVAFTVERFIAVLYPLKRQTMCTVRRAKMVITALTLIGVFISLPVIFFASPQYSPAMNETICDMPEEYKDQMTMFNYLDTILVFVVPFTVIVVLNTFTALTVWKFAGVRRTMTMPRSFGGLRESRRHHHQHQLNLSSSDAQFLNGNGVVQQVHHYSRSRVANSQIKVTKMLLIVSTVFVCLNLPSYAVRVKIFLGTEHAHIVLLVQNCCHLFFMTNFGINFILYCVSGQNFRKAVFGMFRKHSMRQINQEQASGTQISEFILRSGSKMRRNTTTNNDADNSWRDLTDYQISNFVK

## YMSLCHFKLCNMa (disulfide) (YMSLCHFKLCNM-NH2; disulfide 5-10; N-terminus assumed; SMILES CSCC[C@H](NC(=O)[C@H](CC(N)=O)NC(=O)[C@@H]1CSSC[C@H](NC(=O)[C@H](CC(C)C)NC(=O)[C@H](CO)NC(=O)[C@H](CCSC)NC(=O)[C@@H](N)Cc2ccc(O)cc2)C(=O)N[C@@H](Cc2c[nH]cn2)C(=O)N[C@@H](Cc2ccccc2)C(=O)N[C@@H](CCCCN)C(=O)N[C@@H](CC(C)C)C(=O)N1)C(N)=O) [AeCNMa, Ae. aegypti CNMa peptide, amidated, HPLC purified (>90% purity)]
[1]
  EC50: 51.8 nM
[2]
  EC50: 5.17 nM
